Target: the molecule itself
Test: crystal structure

B1: BrlR (transcriptional regulator BrlR from Pseudomonas aeruginosa) (natural protein, UniProt Q9HUT5 1-270, looked up)
chain: MLTIGQLARIFEISTKTLRHYDAIGLFVPARTGSDNGYRYYQPEQIEQLSRILALRRLDVPLEAIDRLKRDGALDDPQRLRHFLQRHQHTLREEISARQRLLAELDRTLATLAHWRIRNMHARIVERPAFSVVGMEYFGSAPGDTIGQLWERFIPREHEIAGKHDPEVSYGICAQQPNGEFHYVAGFEVQEGWPVPEGMVRFQVPAQKYAVFTHKGTAPQIAESFQAIYSHLLAERGLEPKAGVDFEYYDQRFRGPLDPNSQVDLYIPIY
stoichiometry N: 4

Source: publication doi:10.1101/188136 (bioRxiv, 2017)
